Measurements: the array DNA melting data of Ke et al.

Assay: melting temperature; melt of duplexes
Settings: sodium 0.0675 M; strand 1 µM

CGACGTGCTTTATGTGCTG+CAGCACATGATGCACGTCG ((((((((.(.((((((((+)))))))).).))))))))
Tm: 52.1 °C

CGACGTGCTTGATGTGCTG+CAGCACATGGAGCACGTCG (((((((((..((((((((+))))))))..)))))))))
Tm: 54 °C

CGACGTGCCCGATGTGCTG+CAGCACATATAGCACGTCG ((((((((...((((((((+))))))))...))))))))
Tm: 49 °C

CGACGTGCAGAATGTGCTG+CAGCACATCGTGCACGTCG (((((((((..((((((((+))))))))..)))))))))
Tm: 49 °C

CGACGTGCCTAATGTGCTG+CAGCACATATCGCACGTCG ((((((((...((((((((+))))))))...))))))))
Tm: 47 °C

CGACGTGCCGCATGTGCTG+CAGCACATACCGCACGTCG ((((((((.(.((((((((+)))))))).).))))))))
Tm: 48.9 °C

CGACGTGCCTCATGTGCTG+CAGCACATAGTGCACGTCG ((((((((...((((((((+))))))))...))))))))
Tm: 45.9 °C

CGACGTGCACAATGTGCTG+CAGCACATTTAGCACGTCG ((((((((..(((((((((+)))))))))..))))))))
Tm: 48.3 °C

CGACGTGCTAAATGTGCTG+CAGCACATAATGCACGTCG ((((((((...((((((((+))))))))...))))))))
Tm: 50.7 °C

CGACGTGCGGCATGTGCTG+CAGCACATCGCGCACGTCG (((((((((..((((((((+))))))))..)))))))))
Tm: 55.2 °C

CGACGTGCTCTATGTGCTG+CAGCACATAACGCACGTCG ((((((((..(((((((((+)))))))))..))))))))
Tm: 49.7 °C

CGACGTGCAGAATGTGCTG+CAGCACATTAAGCACGTCG ((((((((..(((((((((+)))))))))..))))))))
Tm: 53.3 °C

CGACGTGCGCAATGTGCTG+CAGCACATCCAGCACGTCG ((((((((...((((((((+))))))))...))))))))
Tm: 51.1 °C

CGACGTGCGAAATGTGCTG+CAGCACATATCGCACGTCG ((((((((((.((((((((+)))))))).))))))))))
Tm: 57.4 °C

CGACGTGCACAATGTGCTG+CAGCACATAGTGCACGTCG ((((((((((.((((((((+)))))))).))))))))))
Tm: 53.5 °C

CGACGTGCATGATGTGCTG+CAGCACATGTAGCACGTCG ((((((((...((((((((+))))))))...))))))))
Tm: 49.9 °C

CGACGTGCCGTATGTGCTG+CAGCACATTCAGCACGTCG ((((((((.(.((((((((+)))))))).).))))))))
Tm: 50.1 °C

CGACGTGCGACATGTGCTG+CAGCACATACAGCACGTCG ((((((((...((((((((+))))))))...))))))))
Tm: 53.1 °C

CGACGTGCCATATGTGCTG+CAGCACATTAAGCACGTCG ((((((((...((((((((+))))))))...))))))))
Tm: 50.1 °C

CGACGTGCGATATGTGCTG+CAGCACATTAGGCACGTCG ((((((((...((((((((+))))))))...))))))))
Tm: 50.8 °C

CGACGTGCTGTATGTGCTG+CAGCACATGGGGCACGTCG ((((((((...((((((((+))))))))...))))))))
Tm: 51.4 °C

CGACGTGCTGTATGTGCTG+CAGCACATAATGCACGTCG ((((((((..(((((((((+)))))))))..))))))))
Tm: 51.5 °C

CGACGTGCCCCATGTGCTG+CAGCACATATCGCACGTCG ((((((((...((((((((+))))))))...))))))))
Tm: 45.5 °C

CGACGTGCACAATGTGCTG+CAGCACATATTGCACGTCG (((((((((..((((((((+))))))))..)))))))))
Tm: 48 °C

CGACGTGCCGGATGTGCTG+CAGCACATAACGCACGTCG ((((((((...((((((((+))))))))...))))))))
Tm: 50 °C

CGACGTGCGCGATGTGCTG+CAGCACATTTTGCACGTCG ((((((((...((((((((+))))))))...))))))))
Tm: 48.9 °C

CGACGTGCGGCATGTGCTG+CAGCACATGCAGCACGTCG ((((((((.((((((((((+)))))))))).))))))))
Tm: 63.1 °C

CGACGTGCGATATGTGCTG+CAGCACATGTTGCACGTCG ((((((((.(.((((((((+)))))))).).))))))))
Tm: 54.6 °C

CGACGTGCTACATGTGCTG+CAGCACATGGCGCACGTCG ((((((((..(((((((((+)))))))))..))))))))
Tm: 54.7 °C

CGACGTGCACTATGTGCTG+CAGCACATGACGCACGTCG ((((((((...((((((((+))))))))...))))))))
Tm: 44.6 °C

CGACGTGCGCAATGTGCTG+CAGCACATAGAGCACGTCG ((((((((.(.((((((((+)))))))).).))))))))
Tm: 54.7 °C

CGACGTGCATGATGTGCTG+CAGCACATACAGCACGTCG ((((((((...((((((((+))))))))...))))))))
Tm: 49.5 °C

CGACGTGCTACATGTGCTG+CAGCACATCTCGCACGTCG ((((((((.(.((((((((+)))))))).).))))))))
Tm: 47.2 °C

CGACGTGCGAAATGTGCTG+CAGCACATATTGCACGTCG ((((((((.(.((((((((+)))))))).).))))))))
Tm: 51.9 °C

CGACGTGCACCATGTGCTG+CAGCACATTGAGCACGTCG ((((((((.(.((((((((+)))))))).).))))))))
Tm: 47.2 °C

CGACGTGCGGAATGTGCTG+CAGCACATGGCGCACGTCG (((((((((..((((((((+))))))))..)))))))))
Tm: 58.4 °C

CGACGTGCAACATGTGCTG+CAGCACATGCTGCACGTCG (((((((((.(((((((((+))))))))).)))))))))
Tm: 56.9 °C

CGACGTGCTAGATGTGCTG+CAGCACATCGAGCACGTCG (((((((((.(((((((((+))))))))).)))))))))
Tm: 59.7 °C

CGACGTGCCTTATGTGCTG+CAGCACATATGGCACGTCG (((((((((.(((((((((+))))))))).)))))))))
Tm: 57.9 °C

CGACGTGCGACATGTGCTG+CAGCACATAATGCACGTCG ((((((((...((((((((+))))))))...))))))))
Tm: 50.8 °C

CGACGTGCTCTATGTGCTG+CAGCACATGTCGCACGTCG ((((((((...((((((((+))))))))...))))))))
Tm: 48.1 °C

CGACGTGCGGAATGTGCTG+CAGCACATTGCGCACGTCG (((((((((.(((((((((+))))))))).)))))))))
Tm: 61.2 °C

CGACGTGCCATATGTGCTG+CAGCACATATAGCACGTCG ((((((((.((((((((((+)))))))))).))))))))
Tm: 53.2 °C

CGACGTGCGTAATGTGCTG+CAGCACATCGTGCACGTCG ((((((((...((((((((+))))))))...))))))))
Tm: 44.3 °C

CGACGTGCTCGATGTGCTG+CAGCACATCCTGCACGTCG ((((((((..(((((((((+)))))))))..))))))))
Tm: 53 °C

CGACGTGCCTTATGTGCTG+CAGCACATCACGCACGTCG ((((((((.(.((((((((+)))))))).).))))))))
Tm: 46.7 °C

CGACGTGCATTATGTGCTG+CAGCACATCTGGCACGTCG ((((((((...((((((((+))))))))...))))))))
Tm: 48.4 °C

CGACGTGCAGGATGTGCTG+CAGCACATCTAGCACGTCG ((((((((..(((((((((+)))))))))..))))))))
Tm: 56 °C

CGACGTGCACTATGTGCTG+CAGCACATGAAGCACGTCG ((((((((...((((((((+))))))))...))))))))
Tm: 45.9 °C

CGACGTGCTCCATGTGCTG+CAGCACATTCTGCACGTCG ((((((((...((((((((+))))))))...))))))))
Tm: 47.2 °C

CGACGTGCCCCATGTGCTG+CAGCACATGTTGCACGTCG ((((((((..(((((((((+)))))))))..))))))))
Tm: 51.8 °C

CGACGTGCTAGATGTGCTG+CAGCACATATCGCACGTCG ((((((((.(.((((((((+)))))))).).))))))))
Tm: 51 °C
